Reference: FireProtDB (doi:10.1074/jbc.271.51.32729)

Conditions: Escherichia coli (strain K12), Thermal, CD, reversible: yes, whole UniProt chain shown

B1: Ribonuclease HI wild type, P0A7Y4 (protein)
chain: MLKQVEIFTDGSCLGNPGPGGYGAILRYRGREKTFSAGYTRTTNNRMELMAAIVALEALKEHCEVILSTDSQYVRQGITQWIHNWKKRGWKTADKKPVKNVDLWQRLDAALGQHQIKWEWVKGHAGHPENERCDELARAAAMNPTLEDTGYQVEV
- Tm (pH 3, glycine-HCl 10 mM): 50 °C
- unfolding enthalpy (van 't Hoff) (pH 3, glycine-HCl 10 mM): 95.1 kcal/mol
- Tm (pH 9, glycine-NaOH 50 mM): 47 °C
